For the assay, the target named is AG^(74-173) (A. thaliana) (UniProt P17839). The experiment in a line: SAXS with on-line SEC; Superdex 75 3.2/300 PC on-line at ESRF BM29, 0.1 ml/min, room temperature, 30 mM Tris pH 8.0, 300 mM NaCl, 1 mM TCEP, 5% glycerol; mass from correlated volume and Porod volume; self-association.

Sequence of AG^(74-173) (P17839 74-173): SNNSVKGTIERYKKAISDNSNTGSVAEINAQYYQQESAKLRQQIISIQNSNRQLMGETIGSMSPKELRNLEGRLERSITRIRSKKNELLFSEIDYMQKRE

The term stoichiometry N denotes the number of molecules, sites or subunits per partner or assembly. As to “AG^(74-173) (from UniProt P17839 74-173) (domain or fragment)”, the stoichiometry N is 2.

The values above are taken from article PMC4701952.
